This note sets out measurements from patent CN107840889A (SHANGHAI JIBEI BIOLOGICAL TECH CO LTD, dated 2018).

For this assay, the target named is T1, CD123-his-biotin抗原 (Homo sapiens (Human), UniProt P26951 19-305, biotin label (site not stated)).
T1 construct: Bought from SinoBiological and biotin-labelled; also called CD123-Biotin; CD123抗原; not shown: his tag
T1 sequence: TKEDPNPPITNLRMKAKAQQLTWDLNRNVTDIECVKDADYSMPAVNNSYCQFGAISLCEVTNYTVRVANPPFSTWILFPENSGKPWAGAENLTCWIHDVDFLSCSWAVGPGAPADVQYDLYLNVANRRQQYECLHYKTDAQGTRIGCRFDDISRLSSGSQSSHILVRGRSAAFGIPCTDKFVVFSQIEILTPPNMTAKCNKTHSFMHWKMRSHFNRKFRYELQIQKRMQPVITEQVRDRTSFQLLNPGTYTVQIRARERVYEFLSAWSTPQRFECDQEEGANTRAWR
The assay is described as follows: BLI (Octet RED96), CD123-Biotin on AR2G sensor, scFv periplasmic extract as analyte. Details: 响应: unit not given here.

Several values for one entry are separate records, joined by “and”; a condition that tells them apart may be missing. Identical values can stand only once.

B1: scFv 26292 (scFv, V domains shown)
VH: QVQLQQPGAELVRPGASVKLSCKASGYTFTSYWMNWVKQRPDQGLEWIGRIDPYDSETHYNQKFKDKAILTVDKSSSTAYMQLSSLTSEDSAVYYCARGNWDDYWGQGTTLTVSS
VL: DVQITQSPSYLAASPGETITINCRASKSISKDLAWYQEKPGKTNKLLIYSGSTLQSGIPSRFSGSGSGTDFTLTISSLEPEDFAMYYCQQHNKYPYTFGGGTKLEIK
notes: Tested as an scFv in periplasmic extract of TG1 (pCANTAB 5E vector)
In the case of B1, the koff is 0.000206 s⁻¹ and 0.00021 s⁻¹ and 0.000209 s⁻¹ and 0.000207 s⁻¹.

B2: 6G3 (scFv, V domains shown)
VH: QVQLQQPGAELVRPGASVKLSCKASGYTFTSYWMNWVKQRPDQGLEWIGRIDPYDSETHYNQKFKDKAILTVDKSSSTAYMQLSSLTSEDSAVYYCARGNWDDYWGQGTTLTVSS
VL: DVQITQSPSYLAASPGETITINCRASKSISKDLAWYQEKPGKTNKLLIYSSSRLSSGIPSRFSGSGSGTDFTLTISSLEPEDFAMYYCQQHNKYPYTFGGGTKLEIK
notes: also called 抗体6G3
B2 gave an off-rate constant (koff) of 0.000192 s⁻¹ and a 响应 of 0.425.

B3: 2C5 (scFv, V domains shown)
VH: QVQLQQPGAELVRPGASVKLSCKASGYTFTQYWMNWVKQRPDQGLEWIGRIDPYDSETHYNQKFKDKAILTVDKSSSTAYMQLSSLTSEDSAVYYCARSQVSDYWGQGTTLTVSS
VL: DVQITQSPSYLAASPGETITINCRASKSISKDLAWYQEKPGKTNKLLIYSGSTLQSGIPSRFSGSGSGTDFTLTISSLEPEDFAMYYCQQHNKYPYTFGGGTKLEIK
B3 registered an off-rate (koff) of 0.000502 s⁻¹ and a 响应 of 0.177.

B4: 5E10 (scFv, V domains shown)
VH: QVQLQQPGAELVRPGASVKLSCKASGYTFTSYWMNWVKQRPDQGLEWIGRIDPYDSETHYNQKFKDKAILTVDKSSSTAYMQLSSLTSEDSAVYYCARGNWDDYWGQGTTLTVSS
VL: DVQITQSPSYLAASPGETITINCRASKSISKDLAWYQEKPGKTNKLLIYSSSQRLSGIPSRFSGSGSGTDFTLTISSLEPEDFAMYYCQQHNKYPYTFGGGTKLEIK
In turn, B4 gave an off-rate constant (koff) of 0.000254 s⁻¹ and a 响应 of 0.24.

B5: 7G8 (scFv, V domains shown)
VH: QVQLQQPGAELVRPGASVKLSCKASGYTFTSYWMNWVKQRPDQGLEWIGRIDPYDSETHYNQKFKDKAILTVDKSSSTAYMQLSSLTSEDSAVYYCARGNWDDYWGQGTTLTVSS
VL: DVQITQSPSYLAASPGETITINCRASKSISKDLAWYQEKPGKTNKLLIYDASRRGSGIPSRFSGSGSGTDFTLTISSLEPEDFAMYYCQQHNKYPYTFGGGTKLEIK
notes: also called 抗体7G8
In turn, B5 displayed a koff of 0.000127 s⁻¹ and a 响应 of 0.463.

B6: 4D1 (scFv, V domains shown)
VH: QVQLQQPGAELVRPGASVKLSCKASGYQFTSYWMNWVKQRPDQGLEWIGRIDPYDSETHYNQKFKDKAILTVDKSSSTAYMQLSSLTSEDSAVYYCARGNWDDYWGQGTTLTVSS
VL: DVQITQSPSYLAASPGETITINCRASKSISKDLAWYQEKPGKTNKLLIYSGSTLQSGIPSRFSGSGSGTDFTLTISSLEPEDFAMYYCQQHNKYPYTFGGGTKLEIK
notes: also called 抗体4D1
B6 came in with a koff of 0.000198 s⁻¹ and a 响应 of 0.25.

B7: 6G9 (scFv, V domains shown)
VH: QVQLQQPGAELVRPGASVKLSCKASGYTFTSYWMNWVKQRPDQGLEWIGRIDPYDSETHYNQKFKDKAILTVDKSSSTAYMQLSSLTSEDSAVYYCARGNWDDYWGQGTTLTVSS
VL: DVQITQSPSYLAASPGETITINCCASNSINKDLIWYQEKPGKTNKLLIYSGSTLQSGIPSRFSGSGSGTDFTLTISSLEPEDFAMYYCQQHNKYPYTFGGGTKLEIK
In the case of B7, the off-rate constant (koff) turned out to be 0.000318 s⁻¹ and the 响应 was 0.163.

B8: 2D2 (scFv, V domains shown)
VH: QVQLQQPGAELVRPGASVKLSCKASGYKFQSYWMNWVKQRPDQGLEWIGRIDPYDSETHYNQKFKDKAILTVDKSSSTAYMQLSSLTSEDSAVYYCARGNWDDYWGQGTTLTVSS
VL: DVQITQSPSYLAASPGETITINCRASKSISKDLAWYQEKPGKTNKLLIYSGSTLQSGIPSRFSGSGSGTDFTLTISSLEPEDFAMYYCQQHNKYPYTFGGGTKLEIK
notes: also called 抗体2D2
For the molecule B8, the off-rate (koff) was found to be 0.00014 s⁻¹ and the 响应 is 0.145.

B9: 4A6 (scFv, V domains shown)
VH: QVQLQQPGAELVRPGASVKLSCKASGYTFQSYWMNWVKQRPDQGLEWIGRIDPYDSETHYNQKFKDKAILTVDKSSSTAYMQLSSLTSEDSAVYYCARGNWDDYWGQGTTLTVSS
VL: DVQITQSPSYLAASPGETITINCRASKSISKDLAWYQEKPGKTNKLLIYSGSTLQSGIPSRFSGSGSGTDFTLTISSLEPEDFAMYYCQQHNKYPYTFGGGTKLEIK
Turning to B9, the koff is 0.000323 s⁻¹ and the 响应 is 0.106.

B10: 4C3 (scFv, V domains shown)
VH: QVQLQQPGAELVRPGASVKLSCKASGYTFTQYWMNWVKQRPDQGLEWIGRIDPFDSETHYNLQFKDKAILTVDKSSSTAYMQLSSLTSEDSAVYYCARGNWDDYWGQGTTLTVSS
VL: DVQITQSPSYLAASPGETITINCRASKSISKDLAWYQEKPGKTNKLLIYSGSTLQSGIPSRFSGSGSGTDFTLTISSLEPEDFAMYYCQQHNKYPYTFGGGTKLEIK
Consider B10, for which the off-rate constant (koff) worked out at 0.000322 s⁻¹ and the 响应 was 0.083.

B11: 8A7 (scFv, V domains shown)
VH: QVQLQQPGAELVRPGASVKLSCKASGYTFTSYWMNWVKQRPDQGLEWIGRIDPYDSETHYNQKFKDKAILTVDKSSSTAYMQLSSLTSEDSAVYYCARGNWDDYWGQGTTLTVSS
VL: DVQITQSPSYLAASPGETITINCRASKSISKDLAWYQEKPGKTNKLLIYSGSTLQSGIPSRFSGSGSGTDFTLTISSLEPEDFAMYYCQQTNRYPYTFGGGTKLEIK
notes: 31 is used here; also called 抗体8A7
For the molecule B11, the koff was determined as 0.000178 s⁻¹ and the 响应 stood at 0.471.

B12: 3F8 (scFv, V domains shown)
VH: QVQLQQPGAELVRPGASVKLSCKASGYTFTQYWMNWVKQRPDQGLEWIGRIDPYDSETHYNQKFKDKAILTVDKSSSTAYMQLSSLTSEDSAVYYCARGISQDFWGQGTTLTVSS
VL: DVQITQSPSYLAASPGETITINCRASKSISKDLAWYQEKPGKTNKLLIYSGSTLQSGIPSRFSGSGSGTDFTLTISSLEPEDFAMYYCQQHNKYPYTFGGGTKLEIK
For the molecule B12, the off-rate (koff) was determined as 0.000558 s⁻¹ and the 响应 stood at 0.207.

B13: 7F1 (scFv, V domains shown)
VH: QVQLQQPGAELVRPGASVKLSCKASGYTFTSYWMNWVKQRPDQGLEWIGRIDPYDSETHYNQKFKDKAILTVDKSSSTAYMQLSSLTSEDSAVYYCARGNWDDYWGQGTTLTVSS
VL: DVQITQSPSYLAASPGETITINCRASKSISKDLAWYQEKPGKTNKLLIYSGSTLQSGIPSRFSGSGSGTDFTLTISSLEPEDFAMYYCQQSNKYPYTFGGGTKLEIK
notes: also called 抗体7F1
In the case of B13, the koff came to 2.47e-05 s⁻¹ and the 响应 was determined as 0.486.

B14: 5B1 (scFv, V domains shown)
VH: QVQLQQPGAELVRPGASVKLSCKASGYTFTSYWMNWVKQRPDQGLEWIGRIDPYDSETHYNQKFKDKAILTVDKSSSTAYMQLSSLTSEDSAVYYCARGNWDDYWGQGTTLTVSS
VL: DVQITQSPSYLAASPGETITINCRASKSISKDLAWYQEKPGKTNKLLIYSGSTLQSGIPSRFSGSGSGTDFTLTISSLEPEDFAMYYCQQHNRYPYTFGGGTKLEIK
In turn, B14 registered a koff of 0.00012 s⁻¹ and a 响应 of 0.422.
